# Biological target: HCV NS5A protein, genotype 1b (hepatitis C virus genotype 1b) (UniProt Q9WMX2)
# Assay: co-IP; detergent-solubilized lysates of HEK 293T cells expressing the proteins; immunoprecipitation with mAb against 1b5A, Western blot for NS5B; protocol of Qi et al. [29]; three independent experiments
substance,measurement,value
"HCV NS5B (RNA-dependent RNA polymerase), genotype 1b (Con1), full length (from UniProt Q9WMX2 2420-3010) (enzyme)",fold more co-precipitated than 1bΔ21,> 2 fold
